Measurements published in patent publication US6905818 (MAX PLANCK GESELLSCHAFT ZUR FORDERUNGDER WISSENSCHAFTEN, dated 2005).

Molecular target: T1, LexA protein expressed from pBTM117c (UniProt P0A7C2 1-202)
T1 construct: range 1-220; also called strain x1a
T1 sequence (looked up): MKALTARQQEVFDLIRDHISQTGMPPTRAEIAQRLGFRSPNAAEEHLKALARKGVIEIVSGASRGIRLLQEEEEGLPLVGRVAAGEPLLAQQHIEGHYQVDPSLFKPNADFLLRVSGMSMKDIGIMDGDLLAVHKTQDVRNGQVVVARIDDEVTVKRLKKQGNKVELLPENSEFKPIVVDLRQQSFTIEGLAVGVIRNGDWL
Experiment: yeast two-hybrid, growth on SD-leu-trp-his and β-galactosidase membrane assay
Procedure: Two transformants from each transformation were investigated for the presence of protein—protein interactions by testing the ability of the yeast cells to grow on SD-leu-trp, SD-leu-trp-his, SD-leu+CAN and SD-trp+CHX plates and by the β-galactosidase membrane assay (Breeden and Nasmyth, 1985). […] After selection of the yeast strains harboring the different combinations of the two-hybrid plasmids on SD-leu+CAN and SD-trp+CHX the resulting strains were also analyzed by the β-galactosidase assay. After incubating the membrane containing all three strains on SD-trp+CHX medium only progeny of the yeast strain that originally harbored both the plasmids pBTM117c-HIP1 & pGAD427 yet which had lost the pGAD427 plasmid through counterselection turned blue after incubating in X-Gal solution. […] In comparison, the yeast strain harboring both the plasmids pBTM117c-SIM1 & pGAD427-ARNT is a positive clone that expresses interacting LexA and GAL4ad fusion proteins, because both the LexA and the Gal4ad fusion proteins are necessary for the activation of the reporter genes. […] With the membranes from the SD-leu+CAN plate false positive clones expressing an auto-activating GAL4ad-LexA fusion protein were also detected by the β-galactosidase assay.

binding result: no binding
B1: GAL4ad expressed from pGAD427 (other, yeast, UniProt P04386 768-881, looked up)
chain: ANFNQSGNIADSSLSFTFTNSSNGPNLITTQTNSQALSQPIASSNVHDNFMNNEITASKIDDGNNSKPLSPGWTDQTAYNAFGITTGMFNTTTMDDVYNYLFDDEDTPPNPKKE
notes: range 768-881; also called strain y1α
